Patent US20170137855A1, “RECOMBINANT CELLS AND METHODS FOR NONPHOSPHORYLATIVE METABOLISM” (REGENTS OF THE UNIVERSITY OF MINNESOTA, priority 2015, published 2017)

Assays:
[1] = substrate: O=C(O)[C@H]1OC(O)[C@H](O)[C@@H](O)[C@H]1O; test: purified protein, by the assay type; details: other: D-galacturonate 0 to 10 mM, 1 mM NAD+, pH 7.5, 30° C., 30.0 °C
[2] = substrate: O=C(O)C(=O)C[C@H](O)CO; test: C. crescentus 2-keto-3-deoxy-D-xylonate dehydratase, coupled assay with KGSADH; format: biochemical, Caulobacter crescentus; details: other: coupled assay, substrate from 0-20 mM D-xylonate, 1 mM NAD+, pH 7.5, 25° C.
Experimental: (§1) 2-Keto-3-deoxy-D-xylonate dehydratase (XylX/DR64-8450), 2-keto-3-deoxy-L-arabonate dehydratase (AraD) and 5-keto-4-deoxy-D-glucarate dehydratase (YcbC): Enzyme activities of XylX, DR64-8450, AraD and YcbC were assayed spectrophotometrically in a coupled assay with the corresponding previous dehydratase and 2-ketoglutaric semialdehyde dehydrogenase (KGSADH) as previously described (Watanabe et al., 2006. J Biol. Chem. 281:33521-33536). […] The reaction was initiated by adding an appropriate amount of 2-keto-3-deoxy-D-xylonate dehydratase (XylX/DR64-8450)/2-keto-3-deoxy-L-arabonate dehydratase (AraD)/5-keto-4-deoxy-D-glucarate dehydratase (YcbC), and the increasing absorbance at 340 nm caused by NADH produced in the reaction was monitored.

[3] = substrate: O=C(O)C(=O)C[C@H](O)CO; test: B. xenovorans 2-keto-3-deoxy-D-xylonate dehydratase, coupled assay with KGSADH; format: biochemical, Burkholderia xenovorans LB400; details: other: coupled assay, substrate from 0-20 mM D-xylonate, 1 mM NAD+, pH 7.5, 25° C.
Experimental: as §1

[4] = substrate: O=C(O)[C@H](O)[C@@H](O)[C@@H](O)CO; test: L-arabonate dehydratase, semicarbazide method; format: biochemical, Burkholderia multivorans; details: other: 100 nM enzyme, 100 mM Tris-HCl, 5 mM MgSO4, pH 7.5
Text: (§2) Finally, the 2-ketoacids produced were quantified by detecting their semicarbazone absorbance at 250 nm.

[5] = substrate: OC1OC[C@H](O)[C@H](O)[C@H]1O; test: L-arabinose dehydrogenase, NADH generation at 340 nm; format: biochemical, Burkholderia multivorans; details: other: L-arabinose 0 to 10 mM, 1 mM NAD+, pH 7.5, 30° C.
Experimental: A series of enzymatic assays were conducted to estimate the initial activity as a function of starting substrate concentration. […] Kinetic constants (kcat/Km) for following enzymes were calculated with the same method.

[6] = substrate: O=C(O)[C@H](O)[C@@H](O)[C@H](O)CO; test: B. xenovorans D-xylonate dehydratase, semicarbazide method; format: biochemical, Burkholderia xenovorans LB400; details: other: 100 nM enzyme, 100 mM Tris-HCl, 5 mM MgSO4, pH 7.5
Text: as §2

[7] = substrate: O=C(O)[C@H](O)[C@@H](O)[C@H](O)CO; test: C. crescentus D-xylonate dehydratase, semicarbazide method; format: biochemical, Caulobacter crescentus; details: other: 100 nM enzyme, 100 mM Tris-HCl, 5 mM MgSO4, pH 7.5
Text: as §2

[8] = substrate: O=C(O)[C@@H](O)[C@H](O)[C@H](O)[C@@H](O)C(=O)O; test: purified protein, by the assay type; details: other: 100 nM enzyme, 100 mM Tris-HCl, 5 mM MgSO4, pH 7.5
[9] = substrate: O=C(O)C(=O)C[C@@H](O)CO; test: 2-keto-3-deoxy-L-arabonate dehydratase, coupled assay with KGSADH; format: biochemical, Burkholderia multivorans; details: other: coupled assay, substrate from 0-20 mM L-arabonate, 1 mM NAD+, pH 7.5, 25° C.
Experimental: as §1

B1: Pseudomonas putida KT2440 uronate dehydrogenase (Udh) (Pseudomonas putida KT2440) (protein)
chain: MTTTPFNRLLLTGAAGGLGKVLRERLKGYAEVLRLSDISPMAPAAGPHEEVITCDLADKAAVHTLVEGVDAIIHFGGVSTEHAFEEILGPNICGVFHVYEAARKHGVKRIIFASSNHTIGFYRQDERIDAHAPRRPDSYYGLSKCYGEDVASFYFDRYGIETVSIRIGSSFPQPQNLRMLCTWLSYDDLVQLIERGLFTPGVGHTIVYGASDNRTVWWDNRHAAHLGYVPKDSSETFRAAVEAQPAPAADDPSMVYQGGAFAVAGPFN
[1]
  Km: 150 µM
  kcat: 24.1 s⁻¹

B2: Caulobacter crescentus 2-keto-3-deoxy-D-xylonate dehydratase (XylX) (Caulobacter vibrioides NA1000) (protein)
chain: MGVSEFLPEDWKAATLLGRIDFGEGPTPVLVRGGRVEDVSKIAPTVADLMNAFQPGAVIPRGEDKGPLEALDIRPVWEDPDGAAPVKLLAPVDLQCLKAAGVTFAVSTLERVIEERARGDAGEALKIRTLLAERMGGDLKSVEPGSQGAQRLKDALIADGLWSQYLEVAIGPDAEIFTKGPTLSSMGWGDQVGVRYDSHWNNPEPEVVLLCDGSGLIRGAALGNDVNLRDFEGRSALLLSKAKDNNASCAIGPFFRLFDETFGLDDVRSAEVELKITGRDNFVLDGKSNMSLISRDPAVLAGQAYGKQHQYPDGFALFLGTMFAPIQDRDTPGQGFTHKVGDRVRVSTPKLGVLENEVTTCDKAKPWTFGISALIRNLAGRGLL
notes: coupled with XylD and KGSADH; BlpI site removed in gene
[2]
  Km: 1900 ± 80 µM
  kcat: 0.53 ± 0.1 s⁻¹
  kcat/Km: 260 M⁻¹ s⁻¹

B3: Burkholderia xenovorans LB400 2-keto-3-deoxy-D-xylonate dehydratase (DR64_8450) (Paraburkholderia xenovorans LB400) (protein)
chain: MSATSPSSFLPDDLGQALLVGRVWRKTDQHEGPSVVVVRGGEVFDITATVPTTADLFDREDAAPLARTAPGVSLGAVAQLIASNLPGAAAPALRLLAPCDVQAIKACGVTFAVSLIERVIEEQAAGDPAKAKEVRDTIASMIGTDLSKIEPGSDAAMKLKAELERRGAWSQYMEVGIGPDAEVFSKSQPMSAVGFGADVGLLAASTWNNPEPEIVLAVNSRGEIVGATLGNDVNLRDIEGRSALLLGKCKDNNGSCAIGPFVRLFDESFSLDSVRTASVALRVEGADDGFVLEGVSHMSEISRDPANLVAQTWGRHHQYPDGFMLFLGTMFSPIKDRDAPGAGFTHHLGDLVTISTPQLGALTNTVRLSTEIEPWTFGVRALYRNLAARGLLASA
notes: coupled with D-xylonate dehydratase and KGSADH
[3]
  Km: 8960 ± 200 µM
  kcat: 4.72 ± 0.5 s⁻¹
  kcat/Km: 530 M⁻¹ s⁻¹

B4: Burkholderia multivorans L-arabonate dehydratase (AraC, BmulJ 5323) (Burkholderia multivorans ATCC 17616) (protein)
chain: MSATKPRLRSAQWFGTNDKNGFMYRSWMKNQGIPDHEFDGRPIIGICNTWSELTPCNAHFRKLAEHVKRGIFEAGGFPVEFPVFSNGESNLRPSAMLTRNLASMDVEEAIRGNPIDAVVLLAGCDKTTPALLMGAASCDVPAIVVSGGPMLNGKLEGKNIGSGTAVWQLHEALKAGEIDLHHFLSAEAGMSRSAGTCNTMGTASTMACMAEALGVALPHNAAIPAVDSRRYVLAHMSGIRIVEMALEGLVLSKVLTRAAFENAIRVNAAIGGSTNAVIHLKAIAGRIGVPLELEDWMRIGRDTPTIVDLMPSGRFLMEEFYYAGGLPAVLRRLGEGGLLPHPDALTVNGKTLWDNVREAPNYDDEVIRPLDRPLIADGGIRILRGNLAPRGAVLKPSAASPELLKHRGRAVVFENFDHYKATINDESLDVDANSVLVLKNCGPRGYPGMAEVGNMGLPPKLLRQGVKDMVRISDARMSGTAYGTVVLHVAPEAAAGGPLAAVRNGDWIELDCEAGTLHLDIPDDELQRRLSDVDPAAAPGVAGQAGKGGYARLYLDHVLQADEGCDLDFLVGTRGAEVPSHSH
notes: gene from B. multivorans genomic DNA
[4]
  kcat: 0.17 s⁻¹

B5: Burkholderia multivorans L-arabinose dehydrogenase (AraA, BmulJ 5320) (Burkholderia multivorans ATCC 17616) (protein)
chain: MSQVVSLGVVGIGKIARDQHLPAIAAEPGFALTACASRHAEVTGVRNYPDLGALLAGEPELAAVSLCAPPQVRYAQARAALNAGKHVMLEKPPGATLGEVAALEALAQSRGLTLFATWHSRCASAVEPARAWLATREIRAVQVRWKEDVRRWHPGQQWIWEPGGLGVFDPGINALSIVTRILPRELVLREATLVVPSDTQTPIAAELECADTDGVPVHAEFDWRHGPVEQWEIAVDTADGVLAISAGGAKLSIAGEPVEVGPAREYPALYAQFHALIARRESDVDVRPLRLVADAFLFGRRVDTEAFGR
notes: as for B4
[5]
  kcat: 101.4 s⁻¹

B6: Burkholderia xenovorans LB400 D-xylonate dehydratase (DR64_8449) (Paraburkholderia xenovorans LB400) (protein)
chain: MSASTPRRLRSQEWFDDPSHADMTALYVERFMNYGLTREELQSGRPIIGIAQTGSDLAPCNRHHIELAARTKAGIRDAGGIPMEFPVHPLAEQSRRPTAALDRNLAYLGLVEILHGFPLDGVVLTTGCDKTTPACLMAAATVDMPAIVLSGGPMLDGWHEGKRVGSGTVIWHARNLLATGEIDYEGFMQLTTASSPSIGHCNTMGTALSMNSLAEALGMSLPGCASIPAAYRERGQMAYATGKRIVDLVREDVRPSHIMTKAAFENAIVVASALGASTNCPPHLIAIARHMGVELTLDDWQRVGEQVPLIVNCMPAGEYLGESFHRAGGVPAVLRELVHAQLVHRECLTVSGRTIGEIAADAPSPDRDVIRTTEDPLKHGAGFIVLSGNFFDSAIMKMSVVGEAFRQTYLSEPGNENTFEARAIVFDGPEDYHARINDPSLDIDQHCILVIRGAGTVGYPGSAEVVNMAPPAELVRQGITSLPTLGDGRQSGTSASPSILNMSPEAAVGGGLSLLRTNDRIRVDLNSRSVNVLVDDEELARRRETATFAIPPTQTPWQELYRQTVGQLSTGGCLEPATLYLKVIAERGNPRHSH
notes: gene from LB400 genomic DNA
[6]
  Km: 1520 ± 80 µM
  kcat: 1.73 ± 0.3 s⁻¹
  kcat/Km: 1140 M⁻¹ s⁻¹

B7: Caulobacter crescentus D-xylonate dehydratase (XylD) (Caulobacter vibrioides CB15) (protein)
chain: MRSALSNRTPRRFRSRDWFDNPDHIDMTALYLERFMNYGITPEELRSGKPIIGIAQTGSDISPCNRIHLDLVQRVRDGIRDAGGIPMEFPVHPIFENCRRPTAALDRNLSYLGLVETLHGYPIDAVVLTTGCDKTTPAGIMAATTVNIPAIVLSGGPMLDGWHENELVGSGTVIWRSRRKLAAGEITEEEFIDRAASSAPSAGHCNTMGTASTMNAVAEALGLSLTGCAAIPAPYRERGQMAYKTGQRIVDLAYDDVKPLDILTKQAFENAIALVAAAGGSTNAQPHIVAMARHAGVEITADDWRAAYDIPLIVNMQPAGKYLGERFHRAGGAPAVLWELLQQGRLHGDVLTVTGKTMSENLQGRETSDREVIFPYHEPLAEKAGFLVLKGNLFDFAIMKSSVIGEEFRKRYLSQPGQEGVFEARAIVFDGSDDYHKRINDPALEIDERCILVIRGAGPIGWPGSAEVVNMQPPDHLLKKGIMSLPTLGDGRQSGTADSPSILNASPESAIGGGLSWLRTGDTIRIDLNTGRCDALVDEATIAARKQDGIPAVPATMTPWQEIYRAHASQLDTGGVLEFAVKYQDLAAKLPRHNH
notes: His; made in house; host or cells: E. coli BL21
[7]
  Km: 1180 ± 50 µM
  kcat: 7.6 ± 1.1 s⁻¹
  kcat/Km: 6400 M⁻¹ s⁻¹

B8: E. coli D-galactarate dehydratase (GarD) (Escherichia coli K-12) (protein)
chain: MANIEIRQETPTAFYIKVHDTDNVAIIVNDNGLKAGTRFPDGLELIEHIPQGHKVALLDIPANGEIIRYGEVIGYAVRAIPRGSWIDESMVVLPEAPPLHTLPLATKVPEPLPPLEGYTFEGYRNADGSVGTKNLLGITTSVHCVAGVVDYVVKIIERDLLPKYPNVDGVVGLNHLYGCGVAINAPAAVVPIRTIHNISLNPNFGGEVMVIGLGCEKLQPERLLTGTDDVQAIPVESASIVSLQDEKHVGFQSMVEDILQIAERHLQKLNQRQRETCPASELVVGMQCGGSDAFSGVTANPAVGYASDLLVRCGATVMFSEVTEVRDAIHLLTPRAVNEEVGKRLLEEMEWYDNYLNMGKTDRSANPSPGNKKGGLANVVEKALGSIAKSGKSAIVEVLSPGQRPTKRGLIYAATPASDFVCGTQQVASGITVQVFTTGRGTPYGLMAVPVIKMATRTELANRWFDLMDINAGTIATGEETIEEVGWKLFHFILDVASGKKKTFSDQWGLHNQLAVFNPAPVT
[8]
  Km: 760 µM
  kcat: 18.9 s⁻¹

B9: Burkholderia multivorans 2-keto-3-deoxy-L-arabonate dehydratase (AraD, BmulJ 5321) (Burkholderia multivorans ATCC 17616) (protein)
chain: MTSSRTPRYRGIFPVVPTTFTETGELDLASQKRAVDFMIDAGSDGLCILANFSEQFALADDERDVLTRTILEHVAGRVPVIVTTSHYSTQTCIARSVRAQQLGAAMVMVMPPYHGATFRVPEAQIHAFYARLSDALSIPIMIQDAPASGTVLSAPFLAQLAREIEHVAYFKIETPGAATKLRELIRLGGDAIEGPWDGEEAITLLADLHAGATGAMTGGAYPDGIRPILEAHREGRHDDAFARYQTWLPLINHENRQSGILTAKALMREGGVIACEAPRHPMPTLHPDTRAELIAIARRLDPLVLRWAR
notes: coupled with AraC and KGSADH
[9]
  Km: 9700 µM
  kcat: 0.23 s⁻¹
